The source of these data is the nanobody polyreactivity screen of Harvey et al. (2022).

This data set is described as follows: yeast display, Sf9 membrane polyspecificity reagent, FACS + sequencing; frameworks hold sequencing errors. In short, it runs like this: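 Galactose induction of a Saccharomyces cerevisiae BJ5465 synthetic nanobody display library ran 36–48 hours. The cells were then stained for 1 hour at 4 °C with 10% biotinylated, detergent-solubilized Sf9 membrane reagent, pulled down on streptavidin microbeads and FACS-sorted into low and high (top ~1%) gates on expression and reagent-binding fluorescence. Labels for polyreactivity follow the gate of origin.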
For the sequence “QVQLVESGGGLVQAGGSLRLSCAASGRTFWYYAMGWYRQAPGKERELVAASTYRGGSTYYADSVKGRFTISRDNVKNTVYLQMNSLKPEDTAVYYCAAPYGEDYWRQGTQVTVSS”, the “polyreactivity (PSR sort gate)” value was “high polyreactivity”.

On to “QVQLVESGGGLVQAGGSLRLSCAASGRTFWYYAMGWYRQAPGKERELVATISYRGGSTYYADSVKGRFTISRDNAKNTVYLQMNSLKPEDTAVYYCAAKQWWGGRPKVDYWGQGTQVTVSS”, for which the “polyreactivity (PSR sort gate)” value is “high polyreactivity”.

With “QVQLVESGGGLVQAGGSLRLSCAASGRTFWYYAMGWYRQAPGKERELVAYADSVKGRFTISRDNAKNTVYLQMNSLIPEDTAVYYCAVGPVVWFSSSLYYTDYYYWGQGTQVTVSS”, the “polyreactivity (PSR sort gate)” value is “low polyreactivity”.

Regarding “QVQLVESGGGLVQAGGSLRLSCAASGRTFWYYAMGWYRQSPGKERELVAVITSGSSTYYADSVKGRFTISRDNAKNTDYLQMTSLKPEDTAVYYCAVGRTYRRYSAASYNYWGQGTQVTVSS”, the “polyreactivity (PSR sort gate)” value was “high polyreactivity”.

Regarding “QVQLVESGGGLVQAGGSLRLSCAASGRTFWYYPMGWYRQAPGKEREFVAAISWSGGSTYYADSVKGRFTISRDNAKNTVYLQMNSLKPEDTAVYYCAADRYDSSQFYYWGQGTQVTVSS”, the “polyreactivity (PSR sort gate)” value is on record as “low polyreactivity”.

Turning to “QVQLVESGGGLVQAGGSLRLSCAASGRTFWYYTMGWYRQAPGKERELVAAISGSGGRTYYADSVKGRFTISRDNAKNTVYLQMNSLKPEDTAVYYCAARRAYFVAYIYDRDYWGQGTQVTVSS”, the “polyreactivity (PSR sort gate)” value is “high polyreactivity”.

As to “QVQLVESGGGLVQAGGSLRLSCAASGRTFWYYTMGWYRQAPGKERELVAAISSGGTTNYADSVKGRFTISRDNAKNTVYLQMNSLKPEDTAVYYCAAEANSGDGYYWGQGTQVTVSS”, the “polyreactivity (PSR sort gate)” value is listed as “high polyreactivity”.

Take “QVQLVESGGGLVQAGGSLRLSCAASGRTFWYYTMGWYRQAPGKERELVASISRVTSTYYADSVKGRLTISRDNAKNTVYLQMNSLKPEDTAVYYCAADRTRYYVGYRWTGNKMDYWGQGSQVTVSS”: the “polyreactivity (PSR sort gate)” value is on record as “low polyreactivity”.

With “QVQLVESGGGLVQAGGSLRLSCAASGRTFWYYTMGWYRQAPGKEWELVAAIRASGGGTYADSVKGLFTISRDNAKNTVYLQMNSLNPEDTAVYYCAVRNVYGWYGSRDYWGQGTQVTVSS”, the “polyreactivity (PSR sort gate)” value is “high polyreactivity”.

“QVQLVESGGGLVQAGGSLRLSCAASGRTFYANTMGWYRQAPGKERELVAGITSGGSTSYADSVKGRFTISRDNAKNTVYLQMNSLKPVDTAVYYCAAQFYRYTATGYYADGYWGQGTQVTVSS”: the “polyreactivity (PSR sort gate)” value was “low polyreactivity”.

Turning to “QVQLVESGGGLVQAGGSLRLSCAASGRTFYAYAMGWYRQAPGKERELVAAITSGASTYYADSVKGRFTISRDNAKNTVYLQMISLKPEDTAVYYCAKRVRYYKPGYDYWGQGTQVTVSS”, the “polyreactivity (PSR sort gate)” value was “low polyreactivity”.

“QVQLVESGGGLVQAGGSLRLSCAASGRTFYAYTMGWYRQAPGKERELVAAISSSGGSTYYADSVKGRFTISRDNAKNTVYLQMNSLKPEDTAVYYCAAVWYFNRRVSGYYYWGQGTQVTVSS”: the “polyreactivity (PSR sort gate)” value was “high polyreactivity”.

As for “QVQLVESGGGLVQAGGSLRLSCAASGRTFYDNAMRWYRQAPGKERELDAAITNGGRTNYADSVKGRFTISRDNAKNTVYLQMNSLKPEDTAVYYCAADFWPWYRYYSGGVDYWGQGTQVTVSS”, the “polyreactivity (PSR sort gate)” value is listed as “high polyreactivity”.

Consider “QVQLVESGGGLVQAGGSLRLSCAASGRTFYDYAMGWYRQAPGKEREFVARITYSGGGTYYADSVKGRFTISRDNAKNTVYLQMNSLKPEDTAVYYCARPFIRYLGLTRNGYTSDYWGQGTQVTVSS”, for which the “polyreactivity (PSR sort gate)” value is “high polyreactivity”.

Regarding “QVQLVESGGGLVQAGGSLRLSCAASGRTFYDYAMGWYRQAPGKERELVAAITYRDGTTYYADSVKGRFTISRDNAKNTVYLQMNSLKPEDTAVYDCGKTYYYSLGHGYNYWGQGTQVTVSS”, the “polyreactivity (PSR sort gate)” value was “low polyreactivity”.

In the case of “QVQLVESGGGLVQAGGSLRLSCAASGRTFYFNAMGWYRQAPGKERELVAGISGDGSTNYADSVKGRFTISRDNAKNTFYLQMNSLKPEDTAVYYCAKTMGSQSYDFDYWGQGTQVTVSS”, the “polyreactivity (PSR sort gate)” value is “low polyreactivity”.

Turning to “QVQLVESGGGLVQAGGSLRLSCAASGRTFYGNAMGWYRQAPGKERELVAAITSGGGSTRYADSVKGRFTISRDNANNTVYLQMNSLKPEHTAVYYCAAYRQGTAYDYWGQGTQVTVSS”, the “polyreactivity (PSR sort gate)” value is “high polyreactivity”.

As for “QVQLVESGGGLVQAGGSLRLSCAASGRTFYGYAMGWYRQAPGKERELVAAISKSGGRTYYADSVKGRFTISRDNAKNTVYLQMNSLKPEDSAVYYCNAPVTGAGTYPPYDSWGQGTQVTVSS”, the “polyreactivity (PSR sort gate)” value is reported as “high polyreactivity”.

With “QVQLVESGGGLVQAGGSLRLSCAASGRTFYGYAMGWYRQAPGKERELVAAITQRSGSTYYADSVKGRFTISRDNAKNTVYLQMNSLKPEDTAVYYYNADKSQRVRRGDYWGQGTQVTVSS”, the “polyreactivity (PSR sort gate)” value is reported as “high polyreactivity”.

For the sequence “QVQLVESGGGLVQAGGSLRLSCAASGRTFYGYAMGWYRQAPGKERELVAGITSRVGSTYYADSVKGRFTISRDNAKNNVYLQMNSLKPEDTAVYYCAADRYAVRSYHYDYWGQGTQVTVSS”, the “polyreactivity (PSR sort gate)” value is “low polyreactivity”.

On to “QVQLVESGGGLVQAGGSLRLSCAASGRTFYGYAMGWYRQAPGKERELVATITRRGGSTYYADSVKGRFTISRDNAKNTVYLQMNSLKPEDTAVYYCARQGDQYYRDGDDYWGQGTQVTVSS”, for which the “polyreactivity (PSR sort gate)” value is listed as “high polyreactivity”.

With “QVQLVESGGGLVQAGGSLRLSCAASGRTFYGYAMGWYRQAPGKERELVAVITSGVRTNYADSVKGRFTISRDNAKNTVYLQMNSLKPEDTAVYYCAARGTLALRDHYGYWGQGTQVNVSS”, the “polyreactivity (PSR sort gate)” value was “high polyreactivity”.

Regarding “QVQLVESGGGLVQAGGSLRLSCAASGRTFYGYGMGWYRQAPGKERELVAGISVRGGSTYYADSVKGRFTISRDNAKNTVYLQMNSLKPEDTAVYYCAALGWRPTYYYWGHGTQVTVSS”, the “polyreactivity (PSR sort gate)” value is listed as “high polyreactivity”.

Regarding “QVQLVESGGGLVQAGGSLRLSCAASGRTFYHYAMGWYRQAPGKERELFAAISWTGGSTSSTYYADSVKGRFTISRDNAKNTVYLQMNSLKPEDTAVYYCAADFWWGHTWQDDYWGQGTQVTVSS”, the “polyreactivity (PSR sort gate)” value is reported as “low polyreactivity”.

For the sequence “QVQLVESGGGLVQAGGSLRLSCAASGRTFYHYAMGWYRQAPGKERELVAAITGSGGSTSYADSVKGRFTISRDNAKNTVYLQMNTLKPEDTAVYYCAAVQFPTPLLLYDSWGQGTQVTVSS”, the “polyreactivity (PSR sort gate)” value is listed as “low polyreactivity”.

As to “QVQLVESGGGLVQAGGSLRLSCAASGRTFYHYVMGWYRQEPGKERELVAAITSRGGSTYYADSVKGRFTISRDNAKNTVYLQMNSLKPEDTAVYYCAARLNYGNKYDYWGQGTQVTVSS”, the “polyreactivity (PSR sort gate)” value was “high polyreactivity”.

As for “QVQLVESGGGLVQAGGSLRLSCAASGRTFYIYAMGGNRQATGKERELVAAITWRGGRTYYADSVKGRFTISRDNAKNTFYLQMNSLKPEDTAVYYCGARTGQGPMYKHWGQGTQVTLSS”, the “polyreactivity (PSR sort gate)” value is given as “high polyreactivity”.

“QVQLVESGGGLVQAGGSLRLSCAASGRTFYIYAMGWYRPAPGKERELVAAITSGRSTSYADSVKGRFTISRDNAKNTVYLQMNSLKPEDTAVYYCAADQYTYWFGYDYWGQGTQVTVSS”: the “polyreactivity (PSR sort gate)” value is recorded as “low polyreactivity”.

Turning to “QVQLVESGGGLVQAGGSLRLSCAASGRTFYIYAMGWYRQAPAKERELVAAITWSRGSSTYYADSVKGRFTISRDNAKNTVYLQMNSLKPEDTAVYYCAAETHYYWYEQYDYCGQGTQVTVSS”, the “polyreactivity (PSR sort gate)” value is “high polyreactivity”.

Regarding “QVQLVESGGGLVQAGGSLRLSCAASGRTFYIYAMGWYRQAPGKERELVAAISWGSGSTYYADSVKGRFTISRDNAKNTVYLQMNSLKPEDTAVYYCAAEYAYPSEWTYDYWGQGTQVTVSS”, the “polyreactivity (PSR sort gate)” value is on record as “low polyreactivity”.

On to “QVQLVESGGGLVQAGGSLRLSCAASGRTFYIYAMGWYRQAPGTERELVAAITYGGGRTFYADSVKGRFTISRDKAKNTVYLQMNSLKPEDTAVYYCAADGRTLGRRYYYWGLGTQVTVSS”, for which the “polyreactivity (PSR sort gate)” value is reported as “high polyreactivity”.

As to “QVQLVESGGGLVQAGGSLRLSCAASGRTFYIYVMGWDRQAPGKERELVAGITVRGGITNYADSVKGGFTSSRDNAKNTVYLQMNSLKPEDTAVYYCAVDDLGSEYDYWGQGTQVTVSS”, the “polyreactivity (PSR sort gate)” value was “low polyreactivity”.

For the sequence “QVQLVESGGGLVQAGGSLRLSCAASGRTFYKNAMGWYRQAPGKEREFVASISVSGGRTYYADSVKGRFTISRDNAKNTVYLQMNSLKPEDTAVYYCNARASPLSQRDYWGQGTQVTVSS”, the “polyreactivity (PSR sort gate)” value is reported as “low polyreactivity”.

Regarding “QVQLVESGGGLVQAGGSLRLSCAASGRTFYKYAMGWYRQAPGKERELVAAISSRGGRTYYADSVKGRFTISRDNAKNTVYLQMNSLKPEDTAVYYCAAKGRPDGKYDYWGQGTQVTVSS”, the “polyreactivity (PSR sort gate)” value is on record as “high polyreactivity”.

On to “QVQLVESGGGLVQAGGSLRLSCAASGRTFYLNAMGWYRPAPGKERELVAAITRTGGRTYYADSVKGRFTISRDNAKNTVYLQMNSLKPEDTAVYYCAADYVNYSYEYWGQGTQVTVSS”, for which the “polyreactivity (PSR sort gate)” value is “high polyreactivity”.

As for “QVQLVESGGGLVQAGGSLRLSCAASGRTFYLYTMGWYRQAPGKERELVATISDGGGGTYYADSVKGRFTISRDNAKNTVYLQMNSLKPEDPAVYYCAADPIDVRDVPIPHVDFDYWGQGTQVTVSS”, the “polyreactivity (PSR sort gate)” value was “low polyreactivity”.

For the sequence “QVQLVESGGGLVQAGGSLRLSCAASGRTFYNAMGWYRQAPGKERELVAAITTGGGTKYADSVKGRFTISRDNAKNTVYLQMNSLKPEDTEVYYCATDAPDRTHSDSGFDAGYDYWGQGTQVTLSS”, the “polyreactivity (PSR sort gate)” value is reported as “low polyreactivity”.

“QVQLVESGGGLVQAGGSLRLSCAASGRTFYNTMGWYRQPPGKERELVAAISRGGITNYADSVKGRFTISRDNAKNTVYLQMNSLKPEDTAVYYCNAEPKLYYYYYKFDYWGQGTQVTVAS”: the “polyreactivity (PSR sort gate)” value was “high polyreactivity”.

On to “QVQLVESGGGLVQAGGSLRLSCAASGRTFYNYAMVWYRQAPGKERELVAAIDWGSDSTYYADSVKGRFTISRDNAKNTVYLQMNSLKPEDTAVYYCAAYLVSVYSRTYDYWGQGTQVTVSS”, for which the “polyreactivity (PSR sort gate)” value was “low polyreactivity”.

On to “QVQLVESGGGLVQAGGSLRLSCAASGRTFYPYAMGWYRQAPGKERELVAAISYRGGSTYYADSVKGRFTISRDNAKNTVYLQMNSLKPEDTAVYYCAKRGYASGSKWDYGYWGQGTQVTVSS”, for which the “polyreactivity (PSR sort gate)” value is listed as “high polyreactivity”.

For the sequence “QVQLVESGGGLVQAGGSLRLSCAASGRTFYPYAMGWYRQAPGKERELVAAITQSGGSTYYADSVKGRFTISRDNAKNTVFLEMNSLKPEDTAVYYCAKRGYDNYPFYYWGQGTQVTVSS”, the “polyreactivity (PSR sort gate)” value is listed as “high polyreactivity”.
